Measurements: article PMC9436803

Key:
[1] = biological target: Human IgG1 Fc (residues 216–447) (human); experiment: SPR; Biacore T200; IgG1 Fc amine-coupled to a CM5 chip (1 μg/ml); CD16a 0.01-20.48 μM flowed at 10 μl/min; 20 mM MOPS, 100 mM sodium chloride, 1 μM bovine serum albumin, 0.05% P20, pH 7.4; dissociation constants from equilibrium responses; at least five measurements
[2] = biological target: Human IgG1 Fc (residues 216–447) (human); experiment: SPR; Biacore T200; IgG1 Fc amine-coupled to a CM5 chip (0.33 μg/ml); CD16a 0.04-5.12 μM flowed at 60 μl/min, contact 30 s, dissociation 250 s; 20 mM MOPS, 100 mM sodium chloride, 0.05% P20, pH 7.4, no bovine serum albumin; two-state kinetic model

Substance | Kd [1] | Kd [2] | ka1 (two-state model, major event) [2] | ka2 (two-state model, minor event) [2] | kd1 (two-state model, major event) [2] | kd2 (two-state model, minor event) [2]
CD16a F158 S164A, lacking the N162 glycan (receptor) | 1470 nM |  |  |  |  | 
Fc γ receptor IIIa/CD16a F158 allotype with oligomannose (Man5GlcNAc2) N-glycans (from UniProt P08637 17-254) | 1070 nM |  |  |  |  | 
Fc γ receptor IIIa/CD16a F158 allotype with truncated (1)GlcNAc N-glycans (from UniProt P08637 17-254) | 126 nM | 52 nM | 1.1e+06 M⁻¹ s⁻¹ | 0.0018 s⁻¹ | 0.079 s⁻¹ | 0.005 s⁻¹
Fc γ receptor IIIa/CD16a V158 allotype with truncated (1)GlcNAc N-glycans | 22 nM | 9.2 nM | 2.5e+06 M⁻¹ s⁻¹ | 0.0032 s⁻¹ | 0.04 s⁻¹ | 0.0047 s⁻¹

The remaining substances from weak to strong by Kd [1], led by results:

Kd [1] | Kd [2] | ka1 (two-state model, major event) [2] | ka2 (two-state model, minor event) [2] | kd1 (two-state model, major event) [2] | kd2 (two-state model, minor event) [2] | Substance
270 nM | 76 nM | 170000 M⁻¹ s⁻¹ | 0.0061 s⁻¹ | 0.025 s⁻¹ | 0.0066 s⁻¹ | Fc γ receptor IIIa/CD16a V158 allotype with complex-type N-glycans
230 nM | 109 nM | 1.4e+06 M⁻¹ s⁻¹ | 0.0014 s⁻¹ | 0.18 s⁻¹ | 0.0078 s⁻¹ | CD16a V158 S164A with complex-type N-glycans, lacking the N162 glycan (receptor)
86 nM | 55 nM | 710000 M⁻¹ s⁻¹ | 0.0049 s⁻¹ | 0.071 s⁻¹ | 0.006 s⁻¹ | Fc γ receptor IIIa/CD16a V158 allotype with oligomannose (Man5GlcNAc2) N-glycans
